Laboratory results as given in patent US20020110800A1, “Use of SHP-1 and SHP-2 to detect compounds involved in neuronal survival” (McGill University, priority 1997, published 2002).

Tested on: SHP-2
Test: BDNF-stimulated association of SHP-2 with tyrosine-phosphorylated proteins in cortical neurons
Type: cell-based, rat
Excerpt: FIG. 5 is a Western blot showing that BDNF stimulates the association of SHP-2 with tyrosine phosphorylated proteins in cortical neurons. Lysates prepared from cortical neurons treated with or without BDNF were immunoprecipitated with anti-SHP-2 antibody and probed with anti-pTyr antibody.
To determine the mechanism whereby the neutrotrophins stimulate the survival and growth of normal and injured neurons, we have asked whether the phosphoprotein phosphatases SHP-1 and SHP-2 play a role in the differentiation and survival of primary neurons, focusing our studies on cultured rat sympathetic cervical ganglion (SCG) and cortical neurons in order to determine the exact nature of this regulation.
Immunoprecipitations and immunoblotting were performed as previously described (Kaplan et al., Science, 252:554-558, 1991). […]

B1: BDNF: brain-derived neurotrophic factor, a neurotrophin, obtained from Peprotech (protein, UniProt P23560 19-247, looked up)
Neurotrophic factor BDNF …: APMKEANIRGQGGLAYPGVRTHGTLESVNGPKAGSRGLTSLADTFEHVIEELLDEDQKVRPNEENNKDADLYTSRVMLSSQVPLEPPLLFLLEEYKNYLDAANMSMRVRRHSDPARRGELSVCDSISEWVTAADKKTAVDMSGGTVTVLEKVPVSKGQLKQYFYETKCNPMGYTKEGCRGIDKRHWNSQCRTTQSYVRALTMDSKKRIGWRFIRIDTSCVCTLTIKRGR
- association of tyrosine-phosphorylated proteins with SHP-2: causes the association of tyrosine-phosphorylated proteins with SHP-2
